Values joined by “and” are separate entries in the source; they are usually repeats but may differ in a detail not shown here. Equal values may be shown once. Read-outs that look alike come from different tables or passages of the source.
B1: HB1 (D53N/T55R) (antibody, V domains shown)
VH: EEQVLESGGGLVKPGGSLRLSCAASGFTFSPYSVFWVRQAPGKGLEWVSSINSNSRYKYYADSVKGRFTISRDNAENSIFLQMNSLRAEDTAVYYCARDRSYYAFSSGSLSDYYYGLDVWGQGTLVTVSS
VL: DIVMTQSPLSLSVTPGEPASISCRSSQSLLHTNGYNYLDWYVQKPGQSPQLLIYLASNRASGVPDRFSGSGSGTDFTLKISRVETEDVGVYYCMQALQIPRTFGQGTKVEIK
B2: HB1 Fab fragment, H2-D53N/T55R (HB1) (Fab, V domains shown)
VH: B1 VH
VL: B1 VL

Columns and labels:
Experiment in all cases: cell-based or functional assay
[1] = biological target: T1, HCMV gH on virions of strain VR1814 (HCMV, UniProt P12824 24-743)
T1 sequence: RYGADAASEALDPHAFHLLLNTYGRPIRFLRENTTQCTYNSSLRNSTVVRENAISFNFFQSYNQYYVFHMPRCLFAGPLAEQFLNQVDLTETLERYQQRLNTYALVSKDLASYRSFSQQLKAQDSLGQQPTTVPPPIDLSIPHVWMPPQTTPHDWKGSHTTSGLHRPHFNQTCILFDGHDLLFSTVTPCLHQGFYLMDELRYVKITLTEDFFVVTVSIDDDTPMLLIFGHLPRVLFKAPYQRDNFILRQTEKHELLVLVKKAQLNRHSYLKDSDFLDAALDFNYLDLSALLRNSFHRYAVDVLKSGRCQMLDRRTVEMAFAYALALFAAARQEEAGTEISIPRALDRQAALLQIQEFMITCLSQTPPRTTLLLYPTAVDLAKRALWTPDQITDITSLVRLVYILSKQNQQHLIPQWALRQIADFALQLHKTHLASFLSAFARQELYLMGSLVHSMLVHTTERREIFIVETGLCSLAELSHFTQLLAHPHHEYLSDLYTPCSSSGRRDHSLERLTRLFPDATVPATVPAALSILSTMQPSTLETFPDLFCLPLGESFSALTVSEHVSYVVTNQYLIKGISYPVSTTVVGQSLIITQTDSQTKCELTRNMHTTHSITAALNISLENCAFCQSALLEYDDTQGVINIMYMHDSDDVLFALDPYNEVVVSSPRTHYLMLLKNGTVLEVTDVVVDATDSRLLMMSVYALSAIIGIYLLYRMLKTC

[2] = biological target: T1, HCMV gH on virions of strain VR1814; remark: listed apart in the source
[3] = biological target: T1, HCMV gH on virions of strain VR1814; remark: listed apart in the source
[4] = biological target: T1, HCMV gH on virions of strain VR1814; remark: listed apart in the source
[5] = biological target: T1, HCMV gH on virions of strain VR1814; remark: listed apart in the source
[6] = biological target: T1, HCMV gH on virions of strain VR1814; remark: listed apart in the source

Binder	EC50, block of viral entry into fibroblasts [1]	Epithelial EC50 (first pair of columns), neutralisation [2]	Epithelial EC50 (second pair of columns), neutralisation [2]	Fibroblast EC50, neutralisation [2]	MDM EC50, neutralisation [2]	EC50 on epithelial cells, HB1 alone [3]	EC50 of HB1 in the presence of hu8G8 at .000128 µg/ml [4]	EC50 of HB1 in the presence of hu8G8 at .00064 µg/ml [4]	EC50 of HB1 in the presence of hu8G8 at .0032 µg/ml [4]	EC50 of HB1 with hu8G8 at 0 µg/ml [4]	HB1 EC50, neutralisation of the No Ab control virus [5]	HB1 EC50, neutralisation of hu8G8 - mutant virus 1 (UL131 Q47K, gH unchanged) [6]	HB1 EC50, neutralisation of hu8G8 - mutant virus 2 (UL131 K51E, gH unchanged) [6]	HB1 EC50, neutralisation of hu8G8 - mutant virus 3 (UL131 D46N, gH unchanged) [6]	HB1 EC50, neutralisation of the No Ab control virus [6]	EC50, inhibition of HCMV entry into ARPE-19 cells, Fab fragments from E. coli [1]
B1	0.11 µg/ml and 0.7 nM	0.05 µg/mL	0.03 µg/mL	0.11 µg/mL	0.03 µg/mL	0.063 µl/ml	0.041 µg/mL	0.043 µg/mL	0.035 µg/mL	0.03 µg/mL	0.04 µg/mL	0.18 µg/mL	0.07 µg/mL	0.06 µg/mL	0.22 µg/mL	–
B2	–	–	–	–	–	–	–	–	–	–	–	–	–	–	–	0.15 nM

Reference: patent US20150376265A1 (Genentech, published 2015)
